Experimental findings from article PMC10864366, “Aggresome formation promotes ASK1/JNK signaling activation and stemness maintenance in ovarian cancer” (Nature Communications, 2024) are described below.

The series deals with the molecule itself. The experiment in a line: gel-shift assay (SDS-PAGE of heated and unheated protein, Coomassie stain); purified OTUD1 WT and Δ105–164 protein; heated (100 °C) and unheated samples separated by SDS-PAGE.

B1: purified OTUD1 protein (WT), pET28a-mEGFP-OTUD1 (natural protein, UniProt Q5VV17 1-481, looked up)
chain: MQLYSSVCTHYPAGAPGPTAAAPAPPAAATPFKVSLQPPGAAGAAPEPETGECQPAAAAEHREAAAVPAAKMPAFSSCFEVVSGAAAPASAAAGPPGASCKPPLPPHYTSTAQITVRALGADRLLLHGPDPVPGAAGSAAAPRGRCLLLAPAPAAPVPPRRGSSAWLLEELLRPDCPEPAGLDATREGPDRNFRLSEHRQALAAAKHRGPAATPGSPDPGPGPWGEEHLAERGPRGWERGGDRCDAPGGDAARRPDPEAEAPPAGSIEAAPSSAAEPVIVSRSDPRDEKLALYLAEVEKQDKYLRQRNKYRFHIIPDGNCLYRAVSKTVYGDQSLHRELREQTVHYIADHLDHFSPLIEGDVGEFIIAAAQDGAWAGYPELLAMGQMLNVNIHLTTGGRLESPTVSTMIHYLGPEDSLRPSIWLSWLSNGHYDAVFDHSYPNPEYDNWCKQTQVQRKRDEELAKSMAISLSKMYIEQNACS
notes: OTUD1, wild type; also called purified native WT OTUD1 protein; source: pET28a-mEGFP-OTUD1 construct, purified
With B1, the binding result is given as “binds”.
